Results as given in patent US20130136721A1, “Compositions and Methods of Generating a Differentiated Mesodermal Cell” (THE JOHNS HOPKINS UNIVERSITY, priority 2010, published 2013).
“Also recorded” adds a separate entry of the source.

Key:
H9 hESC = test: Beating hEB assay (contracting hEB after forced aggregation cardiac differentiation); assay type: cell-based, human; details: for effect on cardiac differentiation, phase 2 medium: supplement in d0-d2 medium; for effect on cardiac differentiation, phase 2 medium / effect on cardiac differentiation, phase 3 medium: contracting hEB d9; for effect on cardiac differentiation, phase 3 medium: supplement in d2-d4 medium
Description: The cardiac differentiation protocol was divided into four distinct phases for optimization (FIG. 3A): phase 1: uniform undifferentiated growth; phase 2: hEB formation/mesoderm induction; phase 3: hEB cardiac specification; phase 4: contracting cardiomyocyte development. […] After an initial round of optimizations had been completed, optimizations was repeated a second time to account for the new media formulations and then a third time to optimize the final media formulation. In some cases fourth and fifth repeats were performed to improve the statistical power of the results. For each variable tested, the bell-curve distribution of dose-response was determined. Results shown are averages of the 2nd-5th replicates (FIG. 2B).
For forced aggregation hEB differentiations, confluent hESC or hiPSC which had been grown on a commercially available extracellular matrix, Geltrex (Invitrogen) as monolayers for 3 to 13 passages were passaged with TrypLE Select and seeded at 2.5×10^6 per T25 flask. After 24 hours growth, cells were washed with PBS and treated with room temperature TrypLE Select for 1 minute at 37° C. Cells were seeded at 5000 cells per well in 96-well V-bottom uncoated plates (249952, NUNC) in 100 μL per well RPMI+PVA medium consisting of RPMI Media 1640 (with L-Glutamine), 4 mg mL-1 polyvinyl alcohol (P8136, Sigma, dissolved in RPMI at 4° C. for at least 72 hours, mixing by inversion every day), 1% chemically defined lipid concentrate, 10 μg mL-1 recombinant human insulin (Sigma), 400 μM 1-thioglycerol (Sigma), 25 ng mL-1 BMP4 and 5 ng mL-1 FGF2 (both from R&D systems), 1 μM Y-27632 (Calbiochem). This medium is not stable and was made fresh for each experiment. After 48 hours (on day 2) medium was aspirated with a Costar 8-channel aspirator (Corning) and replaced with RPMI+FBS medium consisting RPMI Media 1640, 20% characterized FBS (Hyclone), 400 μM 1-thioglycerol. On day 4 media was changed to RPMI+PVA without growth factors and hEB were transferred to 96-well U-bottom tissue culture treated plates (650180, Greiner Bio-One). Media was changed on d7 and every 3 days afterwards. hEB were visually assessed for contraction on d9 using a Nikon Eclipse Ti inverted tissue culture microscope with a TOKAI-HIT heated stage (Nikon). Images were captured using NIS-Elements (Nikon). […] For traditional cardiac differentiations using FBS, undirected differentiation was performed as previously described (Kehat et al. J Clin Invest 108, 407-414 (2001)): briefly, confluent H9 hESC grown as colonies on MEF were treated with collagenase IV for 5 minutes at 37° C. then washed from the plate using a 5 mL pipette. Cell clusters were then transferred to Petri dishes in 20% FBS medium for 7 days. hEB were then transferred to gelatin coated tissue culture plates. Media was changed every 3 days.
One single replicate consists of one 96-well plate. Repeat replicates were performed 1-4 months apart using a different vial of cells. Each experiment was repeated at least 3 times representing at least 288 hEB. Total number of hEB assessed in this work exceeds 80,000. Wells in which no hEB was detected due to pipeting error were excluded and accounted for approximately 1-5% of wells. P-values were established using unpaired two-tailed Student's t-test.

iPS(IMR90)-1 hiPSC = test: as above; assay type: cell-based, human; details: d0-d2
Description: The cardiac differentiation protocol was divided into four distinct phases for optimization (FIG. 3A): phase 1: uniform undifferentiated growth; phase 2: hEB formation/mesoderm induction; phase 3: hEB cardiac specification; phase 4: contracting cardiomyocyte development. A simple beating hEB assay was used to sequentially assess improvements in cardiac differentiation in each of these four phases by counting the number of hEB contracting after nine days of differentiation, a time point that was identified as the day of maximum percentage contraction in the enhanced ‘prototype’ version of the protocol (FIG. 1B). After an initial round of optimizations had been completed, optimizations was repeated a second time to account for the new media formulations and then a third time to optimize the final media formulation. […] For each variable tested, the bell-curve distribution of dose-response was determined. […]
For forced aggregation hEB differentiations, confluent hESC or hiPSC which had been grown on a commercially available extracellular matrix, Geltrex (Invitrogen) as monolayers for 3 to 13 passages were passaged with TrypLE Select and seeded at 2.5×10^6 per T25 flask. […] Media was changed on d7 and every 3 days afterwards. hEB were visually assessed for contraction on d9 using a Nikon Eclipse Ti inverted tissue culture microscope with a TOKAI-HIT heated stage (Nikon). […]

B1: NODAL: growth factor titrated between 1-100 ng mL-1 (protein, UniProt Q96S42 238-347, looked up)
Nodal homolog: HHLPDRSQLCRKVKFQVDFNLIGWGSWIIYPKQYNAYRCEGECPNPVGEEFHPTNHAYIQSLLKRYQPHRVPSTCCAPVKTKPLSMLYVDNGRVLLDHHKDMIVEECGCL
B1 was tested, and the “effect on cardiac differentiation, phase 2 medium” value (H9 hESC) was “none were found to have the same potency as BMP4”.

B2: transferrin: bovine transferrin media supplement (protein, UniProt Q29443 20-704, looked up)
Serotransferrin: DPERTVRWCTISTHEANKCASFRENVLRILESGPFVSCVKKTSHMDCIKAISNNEADAVTLDGGLVYEAGLKPNNLKPVVAEFHGTKDNPQTHYYAVAVVKKDTDFKLNELRGKKSCHTGLGRSAGWNIPMAKLYKELPDPQESIQRAAANFFSASCVPCADQSSFPKLCQLCAGKGTDKCACSNHEPYFGYSGAFKCLMEGAGDVAFVKHSTVFDNLPNPEDRKNYELLCGDNTRKSVDDYQECYLAMVPSHAVVARTVGGKEDVIWELLNHAQEHFGKDKPDNFQLFQSPHGKDLLFKDSADGFLKIPSKMDFELYLGYEYVTALQNLRESKPPDSSKDECMVKWCAIGHQERTKCDRWSGFSGGAIECETAENTEECIAKIMKGEADAMSLDGGYLYIAGKCGLVPVLAENYKTEGESCKNTPEKGYLAVAVVKTSDANINWNNLKDKKSCHTAVDRTAGWNIPMGLLYSKINNCKFDEFFSAGCAPGSPRNSSLCALCIGSEKGTGKECVPNSNERYYGYTGAFRCLVEKGDVAFVKDQTVIQNTDGNNNEAWAKNLKKENFEVLCKDGTRKPVTDAENCHLARGPNHAVVSRKDKATCVEKILNKQQDDFGKSVTDCTSNFCLFQSNSKDLLFRDDTKCLASIAKKTYDSYLGDDYVRAMTNLRQCSTSKLLEACTFHKP
For B2, the “effect on cardiac differentiation, phase 2 medium” value (H9 hESC) was “either did not further enhance differentiation or had negative effects on differentiation”, the “effect on cardiac differentiation, phase 3 medium” value (H9 hESC) was “Neither transferrin, L-ascorbic acid, lipids or NEAA enhanced this phase of differentiation” and the “effect on cardiac differentiation, phase 4 medium” value (H9 hESC; supplement in d4 onwards medium) was “not required”.

B3: BMP6: growth factor titrated between 1-100 ng mL-1 (protein, UniProt P22004 375-513, looked up)
Bone morphogenetic protein 6: SASSRRRQQSRNRSTQSQDVARVSSASDYNSSELKTACRKHELYVSFQDLGWQDWIIAPKGYAANYCDGECSFPLNAHMNATNHAIVQTLVHLMNPEYVPKPCCAPTKLNAISVLYFDDNSNVILKKYRNMVVRACGCH
In the case of B3, the “effect on cardiac differentiation, phase 2 medium” value (H9 hESC) is reported as “none were found to have the same potency as BMP4”.

B4: DKK1: additional supplement to serum-free d2-d4 medium (protein, UniProt O94907 32-266, looked up)
Dickkopf-related protein 1: TLNSVLNSNAIKNLPPPLGGAAGHPGSAVSAAPGILYPGGNKYQTIDNYQPYPCAEDEECGTDEYCASPTRGGDAGVQICLACRKRRKRCMRHAMCCPGNYCKNGICVSSDQNHFRGEIEETITESFGNDHSTLDGYSRRTTLSSKMYHTKGQEGSVCLRSSDCASGLCCARHFWSKICKPVLKEGQVCTKHRRKGSHGLEIFQRCYCGEGLSCRIQKDHHQASNSSRLHTCQRH
With B4 the “effect on cardiac differentiation, xeno- and serum-free d2-d4 medium” value (H9 hESC; supplement in serum-free d2-d4 medium) was “did not further enhance differentiation”.

B5: TDGF1: growth factor titrated between 1-100 ng mL-1 (protein, UniProt P13385 31-150, looked up)
Protein Cripto: LGHQEFARPSRGYLAFRDDSIWPQEEPAIRPRSSQRVPPMGIQHSKELNRTCCLNGGTCMLGSFCACPPSFYGRNCEHDVRKENCGSVPHDTWLPKKCSLCKCWHGQLRCFPQAFLPGCD
B5 was tested, and the “effect on cardiac differentiation, phase 2 medium” value (H9 hESC) was “none were found to have the same potency as BMP4”.

B6: activin A: growth factor titrated between 1-100 ng mL-1 (protein, UniProt P08476 311-426, looked up)
Inhibin beta A chain: GLECDGKVNICCKKQFFVSFKDIGWNDWIIAPSGYHANYCEGECPSHIAGTSGSSLSFHSTVINHYRMRGHSPFANLKSCCVPTKLRPMSMLYYDDGQNIIKKDIQNMIVEECGCS
With B6 the “effect on cardiac differentiation, phase 2 medium” value (H9 hESC) was “none were found to have the same potency as BMP4”.

B7: BMP4: bone morphogenic protein 4, mesodermal morphogen growth factor (protein, UniProt P12644 293-408, looked up)
Bone morphogenetic protein 4: SPKHHSQRARKKNKNCRRHSLYVDFSDVGWNDWIVAPPGYQAFYCHGDCPFPLADHLNSTNHAIVQTLVNSVNSSIPKACCVPTELSAISMLYLDEYDKVVLKNYQEMVVEGCGCR
With B7 the “most effective BMP4 concentration” value (H9 hESC; d0-d2) was 25 ng/mL, the “effect on cardiac differentiation, phase 3 medium” value (H9 hESC) was “did not further enhance this phase; also recorded: did not enhance cardiac differentiation” and the “most effective BMP4 concentration” value (iPS(IMR90)-1 hiPSC) was 5 ng/mL.
